From US12679878B2, “CRF2 receptor agonists and their use in therapy” (SANOFI, priority 2020, dated 2026)
Starred links: 1 amine or outer side, 2 acyl side, 3 side chain; linkers in the order of their positions; H or OH if unused. Non-standard residues stand in square brackets, D forms with d. Groups on a side chain read outwards from the residue. No end group written: not given here. *: point of attachment. C20 diacid = O=C(O)CCCCCCCCCCCCCCCCCCC(=O)*; C18 diacid = O=C(O)CCCCCCCCCCCCCCCCC(=O)*; γGlu = O=C(O)[C@H](CCC(=O)[*:2])N[*:1]; Palmitoyl = CCCCCCCCCCCCCCCC(=O)*; AEEA = NCCOCCOCC(=O)O; Aib = CC(C)(N)C(=O)O

T1: anti-target CRF1R receptor (UniProt P34998 24-415, limits assumed)
T1 sequence (looked up): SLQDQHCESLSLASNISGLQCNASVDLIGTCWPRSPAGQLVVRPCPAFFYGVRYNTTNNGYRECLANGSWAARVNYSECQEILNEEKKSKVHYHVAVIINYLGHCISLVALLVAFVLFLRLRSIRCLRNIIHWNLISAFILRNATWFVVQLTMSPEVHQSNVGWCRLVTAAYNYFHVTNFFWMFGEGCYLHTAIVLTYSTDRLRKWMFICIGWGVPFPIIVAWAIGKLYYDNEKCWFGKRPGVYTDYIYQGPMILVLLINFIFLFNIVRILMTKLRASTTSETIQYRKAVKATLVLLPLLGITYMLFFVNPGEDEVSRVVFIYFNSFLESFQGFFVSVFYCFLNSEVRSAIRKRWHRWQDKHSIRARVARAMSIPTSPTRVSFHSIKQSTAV

B1: peptide of SEQ ID NO: 21 (peptide)
peptide: IVLSLD[dV]PTKLK([γGlu-Palmitoyl])QKLLKQERQRKE[Aib]EQAEKNKRILERV-NH2
modifications: N-terminus assumed
SMILES: CCCCCCCCCCCCCCCC(=O)N[C@@H](CCC(=O)NCCCC[C@H](NC(=O)[C@H](CC(C)C)NC(=O)[C@H](CCCCN)NC(=O)[C@@H](NC(=O)[C@@H]1CCCN1C(=O)[C@H](NC(=O)[C@H](CC(=O)O)NC(=O)[C@H](CC(C)C)NC(=O)[C@H](CO)NC(=O)[C@H](CC(C)C)NC(=O)[C@@H](NC(=O)[C@@H](N)[C@@H](C)CC)C(C)C)C(C)C)[C@@H](C)O)C(=O)N[C@@H](CCC(N)=O)C(=O)N[C@@H](CCCCN)C(=O)N[C@@H](CC(C)C)C(=O)N[C@@H](CC(C)C)C(=O)N[C@@H](CCCCN)C(=O)N[C@@H](CCC(N)=O)C(=O)N[C@@H](CCC(=O)O)C(=O)N[C@@H](CCCNC(=N)N)C(=O)N[C@@H](CCC(N)=O)C(=O)N[C@@H](CCCNC(=N)N)C(=O)N[C@@H](CCCCN)C(=O)N[C@@H](CCC(=O)O)C(=O)NC(C)(C)C(=O)N[C@@H](CCC(=O)O)C(=O)N[C@@H](CCC(N)=O)C(=O)N[C@@H](C)C(=O)N[C@@H](CCC(=O)O)C(=O)N[C@@H](CCCCN)C(=O)N[C@@H](CC(N)=O)C(=O)N[C@@H](CCCCN)C(=O)N[C@@H](CCCNC(=N)N)C(=O)N[C@H](C(=O)N[C@@H](CC(C)C)C(=O)N[C@@H](CCC(=O)O)C(=O)N[C@@H](CCCNC(=N)N)C(=O)N[C@H](C(N)=O)C(C)C)[C@@H](C)CC)C(=O)O
B2: peptide of SEQ ID NO: 161 (peptide)
peptide: Ac-IVLSLD[dV]PIKLK([AEEA-AEEA-γGlu-C18 diacid])QILLEQERQE[Aib]EREQAEKNEQILEQV-NH2
SMILES: CC[C@H](C)[C@H](NC(C)=O)C(=O)N[C@H](C(=O)N[C@@H](CC(C)C)C(=O)N[C@@H](CO)C(=O)N[C@@H](CC(C)C)C(=O)N[C@@H](CC(=O)O)C(=O)N[C@@H](C(=O)N1CCC[C@H]1C(=O)N[C@H](C(=O)N[C@@H](CCCCN)C(=O)N[C@@H](CC(C)C)C(=O)N[C@@H](CCCCNC(=O)COCCOCCNC(=O)COCCOCCNC(=O)CC[C@H](NC(=O)CCCCCCCCCCCCCCCCC(=O)O)C(=O)O)C(=O)N[C@@H](CCC(N)=O)C(=O)N[C@H](C(=O)N[C@@H](CC(C)C)C(=O)N[C@@H](CC(C)C)C(=O)N[C@@H](CCC(=O)O)C(=O)N[C@@H](CCC(N)=O)C(=O)N[C@@H](CCC(=O)O)C(=O)N[C@@H](CCCNC(=N)N)C(=O)N[C@@H](CCC(N)=O)C(=O)N[C@@H](CCC(=O)O)C(=O)NC(C)(C)C(=O)N[C@@H](CCC(=O)O)C(=O)N[C@@H](CCCNC(=N)N)C(=O)N[C@@H](CCC(=O)O)C(=O)N[C@@H](CCC(N)=O)C(=O)N[C@@H](C)C(=O)N[C@@H](CCC(=O)O)C(=O)N[C@@H](CCCCN)C(=O)N[C@@H](CC(N)=O)C(=O)N[C@@H](CCC(=O)O)C(=O)N[C@@H](CCC(N)=O)C(=O)N[C@H](C(=O)N[C@@H](CC(C)C)C(=O)N[C@@H](CCC(=O)O)C(=O)N[C@@H](CCC(N)=O)C(=O)N[C@H](C(N)=O)C(C)C)[C@@H](C)CC)[C@@H](C)CC)[C@@H](C)CC)C(C)C)C(C)C
B3: peptide of SEQ ID NO: 160 (peptide)
peptide: Ac-IVLSLD[dV]PIKLK([AEEA-AEEA-γGlu-C18 diacid])QILLEQERQE[Aib]EREQAETNKQILEQV-NH2
SMILES: CC[C@H](C)[C@H](NC(C)=O)C(=O)N[C@H](C(=O)N[C@@H](CC(C)C)C(=O)N[C@@H](CO)C(=O)N[C@@H](CC(C)C)C(=O)N[C@@H](CC(=O)O)C(=O)N[C@@H](C(=O)N1CCC[C@H]1C(=O)N[C@H](C(=O)N[C@@H](CCCCN)C(=O)N[C@@H](CC(C)C)C(=O)N[C@@H](CCCCNC(=O)COCCOCCNC(=O)COCCOCCNC(=O)CC[C@H](NC(=O)CCCCCCCCCCCCCCCCC(=O)O)C(=O)O)C(=O)N[C@@H](CCC(N)=O)C(=O)N[C@H](C(=O)N[C@@H](CC(C)C)C(=O)N[C@@H](CC(C)C)C(=O)N[C@@H](CCC(=O)O)C(=O)N[C@@H](CCC(N)=O)C(=O)N[C@@H](CCC(=O)O)C(=O)N[C@@H](CCCNC(=N)N)C(=O)N[C@@H](CCC(N)=O)C(=O)N[C@@H](CCC(=O)O)C(=O)NC(C)(C)C(=O)N[C@@H](CCC(=O)O)C(=O)N[C@@H](CCCNC(=N)N)C(=O)N[C@@H](CCC(=O)O)C(=O)N[C@@H](CCC(N)=O)C(=O)N[C@@H](C)C(=O)N[C@@H](CCC(=O)O)C(=O)N[C@H](C(=O)N[C@@H](CC(N)=O)C(=O)N[C@@H](CCCCN)C(=O)N[C@@H](CCC(N)=O)C(=O)N[C@H](C(=O)N[C@@H](CC(C)C)C(=O)N[C@@H](CCC(=O)O)C(=O)N[C@@H](CCC(N)=O)C(=O)N[C@H](C(N)=O)C(C)C)[C@@H](C)CC)[C@@H](C)O)[C@@H](C)CC)[C@@H](C)CC)C(C)C)C(C)C
B4: peptide of SEQ ID NO: 172 (peptide)
peptide: IVLSLD[dV]PIKLK([AEEA-AEEA-γGlu-γGlu-C20 diacid])QILLKQERQK[Aib]QREQAEKNKQILAQV-NH2
modifications: N-terminus assumed
SMILES: CC[C@H](C)[C@H](N)C(=O)N[C@H](C(=O)N[C@@H](CC(C)C)C(=O)N[C@@H](CO)C(=O)N[C@@H](CC(C)C)C(=O)N[C@@H](CC(=O)O)C(=O)N[C@@H](C(=O)N1CCC[C@H]1C(=O)N[C@H](C(=O)N[C@@H](CCCCN)C(=O)N[C@@H](CC(C)C)C(=O)N[C@@H](CCCCNC(=O)COCCOCCNC(=O)COCCOCCNC(=O)CC[C@H](NC(=O)CC[C@H](NC(=O)CCCCCCCCCCCCCCCCCCC(=O)O)C(=O)O)C(=O)O)C(=O)N[C@@H](CCC(N)=O)C(=O)N[C@H](C(=O)N[C@@H](CC(C)C)C(=O)N[C@@H](CC(C)C)C(=O)N[C@@H](CCCCN)C(=O)N[C@@H](CCC(N)=O)C(=O)N[C@@H](CCC(=O)O)C(=O)N[C@@H](CCCNC(=N)N)C(=O)N[C@@H](CCC(N)=O)C(=O)N[C@@H](CCCCN)C(=O)NC(C)(C)C(=O)N[C@@H](CCC(N)=O)C(=O)N[C@@H](CCCNC(=N)N)C(=O)N[C@@H](CCC(=O)O)C(=O)N[C@@H](CCC(N)=O)C(=O)N[C@@H](C)C(=O)N[C@@H](CCC(=O)O)C(=O)N[C@@H](CCCCN)C(=O)N[C@@H](CC(N)=O)C(=O)N[C@@H](CCCCN)C(=O)N[C@@H](CCC(N)=O)C(=O)N[C@H](C(=O)N[C@@H](CC(C)C)C(=O)N[C@@H](C)C(=O)N[C@@H](CCC(N)=O)C(=O)N[C@H](C(N)=O)C(C)C)[C@@H](C)CC)[C@@H](C)CC)[C@@H](C)CC)C(C)C)C(C)C
B5: peptide of SEQ ID NO: 171 (peptide)
peptide: IVLSLD[dV]PIKLK([AEEA-AEEA-γGlu-γGlu-C18 diacid])QILLKQERQK[Aib]QREQAEKNKQILAQV-NH2
modifications: N-terminus assumed
SMILES: CC[C@H](C)[C@H](N)C(=O)N[C@H](C(=O)N[C@@H](CC(C)C)C(=O)N[C@@H](CO)C(=O)N[C@@H](CC(C)C)C(=O)N[C@@H](CC(=O)O)C(=O)N[C@@H](C(=O)N1CCC[C@H]1C(=O)N[C@H](C(=O)N[C@@H](CCCCN)C(=O)N[C@@H](CC(C)C)C(=O)N[C@@H](CCCCNC(=O)COCCOCCNC(=O)COCCOCCNC(=O)CC[C@H](NC(=O)CC[C@H](NC(=O)CCCCCCCCCCCCCCCCC(=O)O)C(=O)O)C(=O)O)C(=O)N[C@@H](CCC(N)=O)C(=O)N[C@H](C(=O)N[C@@H](CC(C)C)C(=O)N[C@@H](CC(C)C)C(=O)N[C@@H](CCCCN)C(=O)N[C@@H](CCC(N)=O)C(=O)N[C@@H](CCC(=O)O)C(=O)N[C@@H](CCCNC(=N)N)C(=O)N[C@@H](CCC(N)=O)C(=O)N[C@@H](CCCCN)C(=O)NC(C)(C)C(=O)N[C@@H](CCC(N)=O)C(=O)N[C@@H](CCCNC(=N)N)C(=O)N[C@@H](CCC(=O)O)C(=O)N[C@@H](CCC(N)=O)C(=O)N[C@@H](C)C(=O)N[C@@H](CCC(=O)O)C(=O)N[C@@H](CCCCN)C(=O)N[C@@H](CC(N)=O)C(=O)N[C@@H](CCCCN)C(=O)N[C@@H](CCC(N)=O)C(=O)N[C@H](C(=O)N[C@@H](CC(C)C)C(=O)N[C@@H](C)C(=O)N[C@@H](CCC(N)=O)C(=O)N[C@H](C(N)=O)C(C)C)[C@@H](C)CC)[C@@H](C)CC)[C@@H](C)CC)C(C)C)C(C)C

Molecular target: T1, anti-target CRF1R receptor
Assay: cell-based or functional assay

EC50[nM] 0% HSA (cAMP, CRF1R-overexpression CHO cells)	Emax (%) (cAMP, CRF1R-overexpression CHO cells)	Binder
> 1000 nM	27%	IVLSLD[dV]PTKLK([γGlu-Palmitoyl])QKLLKQERQRKEREQAEKNVRILERV-NH2 (not fully specified; printed as IVLSLDvPTKLK*QKLLKQERQRKEREQAEKNVRILERV-NH2) [peptide of SEQ ID NO: 32]
618 nM	59.2%	B1
> 1000 nM	3.42%	B2
> 1000 nM	20.8%	B3
> 1000 nM	25.6%	B4
> 1000 nM	7.54%	B5
